Publication PMC2917020, “Novel design principles enable specific targeting of imaging and therapeutic agents to necrotic domains in breast tumors” (Breast Cancer Research : BCR, 2010)
Counter-ions that a name gives are not always drawn. Values belong to the compound of their own block, whether it stands above or below them.

How the values were obtained:
primary xenografts = conditions: circulates as non-covalent complex with SA; cited from earlier work
HSA = HSA (Homo sapiens, UniProt P02768); experiment: Association constants of Bchl-Ds to HSA (spectroscopic titration); assay type: binding; conditions: for HSA association constant Ka(HSA): 1:1 non-covalent complex with HSA
From the text: Association constants of Bchl-Ds to HSA were deduced from spectroscopic measurements of the ratio between Bchl-Ds and HSA for different concentrations of HSA using both factor analysis, as previously described and by monitoring changes in the near infrared (NIR) absorption of the Bchl-Ds during titration with HSA. Briefly, all four Bchl-Ds present broad NIR absorption with reduced intensity in SA-free aqueous solutions. Upon addition of SA, they form 1:1 complexes with the added protein ((Bchl-D)/SA) with strong and narrow NIR absorption bands. The narrow-band absorption is proportional to the ((Bchl-D)/SA) concentration enabling calculation of the association constant Ka through the following equation: [drawing 1]
Where [SA]0 is the analytical concentration of the added SA and [(Bchl-D/SA)] is the concentration of the Bchl-D complex with SA calculated from the spectral changes.

[1] = Biodistribution studies (tissue extraction, fluorescence); assay type: in vivo, CD-1 nude female mice
Procedure: Anaesthetized mice were i.v. injected with 15 mg/kg STL-6014 (n = 27) or 9 mg/kg STL-7012 (n = 15). At each indicated time point, three animals were sacrificed and blood, kidney, liver and tumor tissues were collected into pre-weighed vials and frozen at -20°C. Tissue samples were homogenized in methanol (100 mg tissue/ml) and extracted the next morning by centrifugation (13,000 × g five minutes) at room temperature. Supernatants were diluted in methanol by a factor of two and drug concentration was determined by fluorescence measurements (Varian - Cary Eclipse spectrofluorimeter, Palo Alto, California, USA) at 750 nm (peak values). Drug concentrations were interpolated from a fluorescence calibration curve, based on predetermined drug concentrations using absorption spectroscopy.

MDA-MB-231-RFP tumors [2] = experiment: Whole-body fluorescence imaging of drug accumulation and clearance in tumors; conditions: large necrotic tumors, 9 mg/kg i.v., from one hour post injection
Procedure: (§1) Mammary fat pads (left, bottom nipple) of female mice were inoculated with harvested MDA-MB-231-RFP human breast cancer cells (4 × 10^6 in 100 μl saline). Tumors were classified as 'small' (≤100 mm^3) at one to two weeks from time of cell injection, or 'large' after three to four weeks (necrotic tumors, 250 to 500 mm^3). To avoid tumor burden, mice were sacrificed (cervical dislocation) when tumor size reached 10% of body weight or at 90 days post-implantation. External caliper measurements, length (L), width (W) and depth (D) were used to calculate in vivo tumor volume according to the formula: V = L/2 · W/2 · D/2 · π · 4/3 [46].
(§2) The in Vivo Optical Imaging System (IVIS®100/XFO-12, Xenogen Corp., Alameda, CA, USA) was used to acquire fluorescent images of the RFP-expressing tumors, as well as Bchl-D compounds associated with tissues and organs after their intravenous (i.v.) infusion to the tested animals. The field of view was 15 cm. RFP fluorescence, in units of photons/sec, was detected using 525/50 nm and 612/75 nm filter sets for excitation and emission, respectively, with one second integration time. NIR fluorescence of the different Bchl-Ds, in units of photons/sec, was detected using 680/30 nm and 847/75 nm filter sets for excitation and emission, respectively, at an integration time of five seconds. Background fluorescence for all quantitative analyses was calculated by recording the average fluorescence (photons/sec)/cm^2 from three animals in three different areas around and within the tumor of untreated animals provided with a similar diet for three days before measurements.
(§3) Drug accumulation was determined following i.v. administration of molar equivalents of the Bchl-D moiety to the tail vein of mice fed with a chlorophyll-free, purified diet (Harlan Teklad, Harlan Laboratories, Indianapolis, IN, USA) for three days before administration (in order to reduce skin and food autofluorescence). Before imaging, mice were anesthetized by intraperitoneum injection of a 30 μl mixture of 85:15 ketamine:xylazine.
(§4) Xenogen Living Image Software (Xenogen Corp., Alameda, CA, USA) was used for sequential fluorescent image acquisition [see Additional file 1] and superimposition of photographic images of mice and color-coded fluorescent images.

MDA-MB-231-RFP tumors [3] = conditions: mouse, in vivo
Procedure: as §1, §2, §3, §4

in vivo = conditions: female, CD-1 nude, mouse
Procedure: as §1, §2, §3, §4

MDA-MB-231-RFP tumors [4] = experiment: In vivo competition between STL-6014 and free c(RGDfK); design: species or system CD-1 nude female mice
Procedure: STL-6014 (140 nmol, 7.5 mg/kg) was i.v. injected to the tail vein of mice one hour after being pre-injected with an excess (8.5 μmol) of c(RGDfK) free peptide. Whole-body fluorescence images were recorded up to 24 hours post-STL-6014 injection (IVIS®, Xenogen Corp., Alameda, CA, USA) with the respective filter settings, described above.

[5] = system: large MDA-MB-231-RFP tumors; experiment: Fluorescence imaging of dissected tumors (spatial distribution); assay type: in vivo, CD-1 nude female mice; conditions: 15 mg/kg i.v.
αVβ3 integrin receptors = system: αVβ3 integrin receptors; design: method as in PMID 16309948; conditions: cited from earlier work
[6] = design: method as in PMID 11216533; conditions: cited from earlier work
[7] = 48 to 72 hours post-administration

HSA, sequence (P02768 25-609): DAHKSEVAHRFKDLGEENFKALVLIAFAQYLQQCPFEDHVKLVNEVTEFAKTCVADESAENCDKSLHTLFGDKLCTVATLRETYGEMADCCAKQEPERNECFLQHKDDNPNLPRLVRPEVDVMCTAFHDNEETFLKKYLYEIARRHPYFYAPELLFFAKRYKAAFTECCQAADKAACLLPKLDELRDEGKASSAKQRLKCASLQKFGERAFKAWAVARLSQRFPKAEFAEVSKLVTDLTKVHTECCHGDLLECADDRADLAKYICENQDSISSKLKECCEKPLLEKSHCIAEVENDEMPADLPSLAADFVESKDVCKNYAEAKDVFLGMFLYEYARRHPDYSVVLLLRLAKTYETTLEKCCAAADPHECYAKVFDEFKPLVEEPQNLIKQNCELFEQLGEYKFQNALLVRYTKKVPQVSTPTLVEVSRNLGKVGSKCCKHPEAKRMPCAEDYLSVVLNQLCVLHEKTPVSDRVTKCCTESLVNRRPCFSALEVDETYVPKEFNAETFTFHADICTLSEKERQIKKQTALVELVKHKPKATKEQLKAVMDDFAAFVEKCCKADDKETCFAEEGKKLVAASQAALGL

Compound: CC[C@H]1c2cc3[n-]c(c(CC(=O)OC)c4nc(cc5[n-]c(cc(n2)[C@@H]1C)c(C(C)=O)c5C)[C@@H](C)[C@@H]4CCC(=O)[O-])c(C(=O)NCCS(=O)(=O)[O-])c3C.[H+].[H+].[Pd+2] [WST11]
accumulation in the tumor tissue (primary xenografts): no accumulation in the tumor tissue | HSA association constant Ka(HSA) (HSA): 0.54 ± 0.07 µM⁻¹

Compound: CC[C@H]1c2cc3[nH]c(c(CC(=O)OC)c4nc(cc5[nH]c(cc(n2)[C@@H]1C)c(C(C)=O)c5C)[C@@H](C)[C@@H]4CCC(=O)O)c(C(=O)NCCS(=O)(=O)[O-])c3C.[K+] [STL-7012, 3^1-oxo-15-methoxycarbonylmethyl-Rhodobacteriochlorin 13^1-(2-sulfoethyl)amide dipotassium salt]
accumulation in tumor, fluorescence of tissue extracts ([1]; 9 mg/kg i.v., any time longer than one hour post administration): no STL-7012 accumulation in the tumor | HSA association constant Ka(HSA) (HSA): 0.44 ± 0.09 µM⁻¹ | tumor fluorescence in whole-body imaging (MDA-MB-231-RFP tumors [2]): No specific tumor fluorescence

Kd (HSA; as restated in discussion, read-out: Ka, association with SA (converted)): 8.33 µM
Compound: CC[C@H]1c2cc3[nH]c(c(CC(=O)OC)c4nc(cc5[nH]c(cc(n2)[C@@H]1C)c(C(C)=O)c5C)[C@@H](C)[C@@H]4CCC(=O)NCCCC[C@@H]1NC(=O)[C@@H](Cc2ccccc2)NC(=O)[C@H](CC(=O)O)NC(=O)CNC(=O)[C@H](CCCNC(=N)N)NC1=O)c(C(=O)NCCS(=O)(=O)O)c3C [STL-6014, 3^1-oxo-15-methoxycarbonylmethyl-Rhodobacteriochlorin 13^1-(2-sulfoethyl)amide-17^3-c(RGDfK)amide potassium salt]
t1/2 of hepatic clearance ([1]; 15 mg/kg i.v.): about four | time to clear to nearly background levels in normal tissues ([1]; 15 mg/kg i.v.): less than 72 hours | tumor level relative to blood [1, 7]: about two orders of magnitude | tumor level relative to kidney, liver, intestines, lung and skin [1, 7]: about two | tumor level relative to spleen, heart, brain, fat and muscle ([1]; 48 to 72 hours post-administration, data not shown): about 10 fold | time of peak levels in normal tissues post-injection ([1]; blood, liver, kidney, 15 mg/kg i.v.): less than five | time of peak concentration in tumors post-injection ([1]; large tumors, 15 mg/kg i.v.): eight | peak concentration in tumors ([1]; large tumors, 15 mg/kg i.v., eight hours post-injection): 11 μg drug/gr tumor tissue | peak tumor level as share of the initial drug dose ([1]; large tumors, eight hours post-injection): about 3.0% | time to full clearance from tumor (MDA-MB-231-RFP tumors [3]): less than two | tumor half lifetime (T1/2) (MDA-MB-231-RFP tumors [3]): in the range of days | clearance from small tumors relative to large tumors (faster) (MDA-MB-231-RFP tumors [3]; iv, 15 mg/kg): more than 10 fold | persistence of tumor fluorescence (MDA-MB-231-RFP tumors [3]; iv, 15 mg/kg): still detectable at nine days | t^1_1/2 of tumor fluorescence, bi-exponential decay (MDA-MB-231-RFP tumors [3]; iv, 15 mg/kg): 12.0 ± 3.5 h | t^2_1/2 of tumor fluorescence, bi-exponential decay (MDA-MB-231-RFP tumors [3]; iv, 15 mg/kg): 210.0 ± 86.0 h | time for tumor fluorescence to return to background values (MDA-MB-231-RFP tumors [3]; iv, 15 mg/kg): ≤ 48 h | time of peak tumor fluorescence after administration (MDA-MB-231-RFP tumors [3]; iv, 15 mg/kg): six to eight | Tmax (in vivo): 48 to 72 h | half-life (in vivo; iv, 15 mg/kg, t1/2 of tumor fluorescence, mono-exponential decay): 14 ± 1.5 h | STL-6014 uptake and accumulation after pre-administration of free c(RGDfK) (MDA-MB-231-RFP tumors [4]; large tumors, data not shown): not affected | STL-6014 tumor fluorescence after pre-injection of free c(RGDfK) (MDA-MB-231-RFP tumors [4]; small tumors, 7.5 mg/kg (140 nmol) i.v. one hour after 61-fold molar excess c(RGDfK)): almost no STL-6014 fluorescence was detected in the tumor | location of fluorescence signal in dissected tumor ([5]; beyond 16 hours post-injection): only observed in the necrotic domain | location of fluorescence signal in dissected tumor ([5]; four hours post injection): within the viable tumor region alone

Compound: Cyclo-Arg-Gly-Asp-D-Phe-Lys [c(RGDfK)]
Ka, association of c(RGDfK) moiety with αVβ3 integrin receptors (αVβ3 integrin receptors): about 10^9 M^-1 | half life in a similar animal model [6]: minutes
